The data set in a line: amyloid nucleation score (Sup35N fusion, yeast selection) (log enrichment); library NNK1; higher = more nucleation; inactive = no reads after selection. The method in brief:
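DiMSum was used to calculate nucleation scores as log enrichment of output over input reads, centred on the mode score of non-aggregating sequences. Sequences with fewer than 100 input reads were not scored. Input and output came from Illumina sequencing of plasmid inserts in psi-negative yeast expressing peptides of 20 random codons fused to Sup35N, induced 24 hours with 100 μM copper sulfate and then grown 7 days at 30°C on medium lacking adenine and uracil.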

± gives the uncertainty stated by the source.

Consider STCGCRPGLLFWARSPYN, for which the amyloid nucleation score is -0.367 ± 0.63.
GTMDMSQGYSQVCLDFIVHG: the amyloid nucleation score is -0.626 ± 1.2.
CCLHSAFSNNARILFMALRS: the amyloid nucleation score was 0.861 ± 0.84.
As for GCMAPNCCGWEGVDEMSWVR, the figure is -0.013 ± 0.84.
SSGVSNQSIQDIDMRLVYFA displayed an amyloid nucleation score of 0.06 ± 0.35.
Consider FNLATIPISQFITPNSPLLR, for which the amyloid nucleation score is -0.091 ± 1.1.
Consider QNDLERWAEGQASKMLG, for which the amyloid nucleation score came to 0.433 ± 0.4.
Take SAPMVFESDPREFAAGMSRL: the amyloid nucleation score is -0.53 ± 0.39.
With PCFRTYDCAISNLAVASRCR the figure was 1.03 ± 0.37; with PKVFIEKAAIYIFAL, 0.029 ± 0.51; with NLHVQGVTRNGC, 3.84 ± 0.076.
With DCMIVGLHHIKVRHSLFVRW, the amyloid nucleation score was -0.128 ± 0.33.
Consider FCVWIGKEGD, for which the amyloid nucleation score came out at 0.442 ± 0.51.
Take SVQRAV: the amyloid nucleation score is -0.489 ± 1.7.
Take QSISYR: the amyloid nucleation score was -0.956 ± 0.7.
In the case of VMHYYTSVYDVNYVRYSPPW, the amyloid nucleation score came to 1.16 ± 0.35.
With YGISVMIYDRPAISACQIKH the figure was 2.71 ± 0.11; with IGSVCLQ, “inactive”; with TSHSCHIVGAFMKKCWFSST, -0.057 ± 0.65.
The substance WDTPFFCPSRNFRRATGPYP had an amyloid nucleation score of 0.983 ± 0.53.
With IRYLWHVLMVRFEESRWSLY the figure was -0.061 ± 0.36.
SGNSSFIVILNKRTFRLCRY had an amyloid nucleation score of 1.41 ± 0.18.
As to CSSMQFVACLNSAYGSSTAM, the amyloid nucleation score was 0.027 ± 0.76.
With VYIYRSVPNTAPAPMIEKKD, the amyloid nucleation score is -0.048 ± 1.2.
On to LVLIAA, for which the amyloid nucleation score entry was “inactive”.
As for SQLGMAWLSHGVDLPIRFYK, the amyloid nucleation score amounted to 0.241 ± 1.4.
On to DTLIAWTGLVMFTSVERGCS, for which the amyloid nucleation score is -0.299 ± 0.37.
As to TASLLLTLLFGLPEGLLW, the amyloid nucleation score is 0.975 ± 0.3.
As for GSGWEGSTVRFSQASFGELW, the figure is 0.328 ± 0.97; as for VAWPRGPVKARGIYISGRIC, “inactive”.
Turning to RYRWRL, the amyloid nucleation score result was “inactive”.
In turn, MFVRPRESAEHMLGFRVYSG had an amyloid nucleation score of 0.452 ± 0.37.
On to CMRHHMSQHCIPGGPRCRGA, for which the amyloid nucleation score was -0.912 ± 0.65.
As for VVTWVYASSVVLSSLPREGA, the amyloid nucleation score is -0.115 ± 0.26.
Take KLYPFL: the amyloid nucleation score was found to be 0.565 ± 0.32.
The substance YYNFLLIIFNCCKVMS came in with an amyloid nucleation score of 3.5 ± 0.11.
On to RAISVLPIMSVRAH, for which the amyloid nucleation score worked out at 0.085 ± 0.25.
Substance VNMRASSSMLTTVVAFIFPG yielded an amyloid nucleation score of 6.521 ± 0.047.
With LFVMSWYNYAVKFVAINTIT, the amyloid nucleation score was -0.031 ± 0.24.
For the substance ANWCF, the amyloid nucleation score is -0.213 ± 0.5.
For the substance RIYRFLKLLIRGGVISVARY, the amyloid nucleation score was -0.758 ± 1.9.
The substance KVIFQVYYI had an amyloid nucleation score of 7.46 ± 0.047.
As for LYVMRKSDMMLDFRNAANVG, the figure is -0.142 ± 0.23; as for FSLRDISNISIWAYLNQPCR, -0.341 ± 0.32.
The substance VFLYFIVLNANHCFIMPEHF displayed an amyloid nucleation score of 3.42 ± 0.089.
As for GLRDACFSVLPVYLWVSNGD, the figure is 0.281 ± 0.55; as for LLLDLILY, -0.505 ± 0.72; as for NVGRSAICVRSCRMSLVFDG, 0.11 ± 0.35.
For PMLVQLLEASWVKPVLDCIY, the amyloid nucleation score result is “inactive”.
For the substance IMLLLREKLASIRMMQECQL, the amyloid nucleation score entry is “inactive”.
With GFFVNNCLFSILLDFWVSEE, the amyloid nucleation score is 1.24 ± 0.26.
For the substance RLMNRFMPKSLLLLLPVFVR, the amyloid nucleation score result was “inactive”.
As to YRSFAYEGSSRIGG, the amyloid nucleation score was -0.022 ± 0.38.
As for TNSTISYFARFVVIWLGKIA, the amyloid nucleation score was -0.488 ± 0.86.
In the case of IEDTGIYRSVTFTVAMTYTV, the amyloid nucleation score was -0.373 ± 0.38.
For the substance AELILFIVLELMKRAFLSS, the amyloid nucleation score is -0.795 ± 0.4.
As for MCREYVFDNSPVT, the amyloid nucleation score is -0.89 ± 1.2.
In turn, LWFGSHLTNCVKYDLKGESV had an amyloid nucleation score of 1.41 ± 0.47.
Turning to SGSQY, the amyloid nucleation score is -1.26 ± 1.7.
As to KNYLLSLGVCNFQSYPHKCW, the amyloid nucleation score worked out at 4.22 ± 0.16.
As for FKIFD, the figure is 1.15 ± 0.81.
Take ICLLLCLVWDGCIATISNGL: the amyloid nucleation score is -1.39 ± 2.1.
As for NKYQLHMILKGFQGSAYWSV, the amyloid nucleation score was -0.453 ± 0.81.
The substance PMPSLECNGVHFIKGIRLTL registered an amyloid nucleation score of 0.754 ± 0.99.
As for YTAACTRSNCYMCPVSAVGW, the figure is 0.214 ± 0.86; as for RPSPEGY, 1.37 ± 0.84.
As for TTLVLTADLAVNPRRWWTMI, the amyloid nucleation score was found to be 0.373 ± 0.43.
In the case of GRNWLVGCVAQWHWSSLSWS, the amyloid nucleation score was -1.11 ± 2.7.
SGIEAFNRIIGVCCVLEAGR had an amyloid nucleation score of 3.58 ± 0.19.
Substance CTYVLWRGMKGFR had an amyloid nucleation score of 0.05 ± 0.88.
The substance SLHILISH had an amyloid nucleation score of 0.537 ± 0.39.
As for ASNAWCMYYMLATGAMEISL, the amyloid nucleation score is -0.617 ± 0.86.
Substance HRTFA yielded an amyloid nucleation score of 0.465 ± 0.35.
As for NPVRMMRNRLVLGKNCAPRG, the amyloid nucleation score was -0.024 ± 0.28.
With LLGDMMALQAYSELLRFMSG, the amyloid nucleation score was -0.234 ± 0.61.
As for RRSLYYGITIN, the amyloid nucleation score was -0.337 ± 0.32.
With WSATSATMLQSLPVQEEHVD, the amyloid nucleation score is -0.38 ± 0.83.
As for WFFRLLAMSRRTEVAGTSPL, the figure is 0.941 ± 0.65.
Regarding WRWYEGGLTLSWSHASSA, the amyloid nucleation score is -0.536 ± 0.98.
NHMFPMVVTYLWSCFIIGSV showed an amyloid nucleation score of 2.42 ± 0.37.
Turning to YVGIPQCGDLKRRPLA, the amyloid nucleation score worked out at 0.116 ± 1.1.
As for ITKNRPARNRLLRTGMYFLL, the figure is 0.004 ± 0.29; as for LIQLVDRVGGGVFTRDCDAI, -0.368 ± 0.47; as for TFIYSRECRRTSVWQPFNNR, -0.704 ± 0.65.
Consider NVSLRFGSYPGVNVGSAFMV, for which the amyloid nucleation score is -0.109 ± 0.53.
With PKRPMWLIQET the figure was -0.571 ± 0.61.
With HERFLRIQRVHREKKCKVCL, the amyloid nucleation score was 0.267 ± 0.77.
In the case of IHMLIVLSF, the amyloid nucleation score is -0.103 ± 1.4.
On to TRPLQYIQ, for which the amyloid nucleation score is -0.045 ± 1.1.
As for HVHTDSIDRVWRVLFTIKSK, the figure is 0.776 ± 0.61; as for KSVDFTYDEGRSTAVIVYHF, 0.223 ± 0.29.
Take RDLDSSILNNFFDICTFWNK: the amyloid nucleation score was -0.305 ± 0.5.
In turn, FTLHYCLMDAFWGSSMDRGV had an amyloid nucleation score of 0.275 ± 0.41.
For NTYDHMTYNRGFRSM, the amyloid nucleation score result is “inactive”.
As for HKCDSVKVGGSCNKTAYSRC, the amyloid nucleation score is 0.787 ± 0.59.
On to ALSYGIVAMMVVIGPGIVVC, for which the amyloid nucleation score is 0.388 ± 0.27.
On to RRWALRYINSATLFFLKVIG, for which the amyloid nucleation score was -0.661 ± 0.93.
With RKFGPMG the figure was 0.848 ± 1; with GIYTFFVGTKFC, 0.65 ± 0.5; with WVLTVVFVDKWREAYMYATF, “inactive”.
Substance VKALGHLRPTWLEKGCNHA yielded an amyloid nucleation score of 0.289 ± 0.25.
With RYARLMYASACCSSC the figure was -0.404 ± 0.52; with QALYSCDDYRGYRTSQCPRS, -1.13 ± 1.9; with IMFLRLFKGLCMKYSVRRDC, -0.512 ± 0.4.
FWELECADIAVKSKGGCQGC: the amyloid nucleation score is -0.402 ± 0.44.
Regarding FLRHLSSCCHLATLCVDWGA, the amyloid nucleation score is -0.103 ± 1.4.
Consider MMSFVEKPQGESSSNEWGVN, for which the amyloid nucleation score is -0.777 ± 2.4.
As for RRIGIGYGLLCRAWAYLYVL, the figure is -0.477 ± 1.2; as for MVKRRV, -0.232 ± 1.2; as for GAPRSCGLAD, 0.27 ± 0.63.
For CLGDTWWNMNKSGTEVVCPV, the amyloid nucleation score worked out at 0.858 ± 1.1.
As for VHKDFHANANRVSWQLAL, the figure is -0.243 ± 0.73.
Substance LLIGWASEDHRYKGISNGGG had an amyloid nucleation score of 0.598 ± 0.34.
For GQYVWADLINVVRLWVFVSR, the amyloid nucleation score is 0.503 ± 0.87.
For FKKNKQSSVKFGSNKSLQIG, the amyloid nucleation score stood at 0.027 ± 0.51.
For LRIFSA, the amyloid nucleation score came out at 1.22 ± 0.8.
On to VTYTISRELSFCPPITFGTL, for which the amyloid nucleation score was found to be 0.777 ± 0.73.
With PQRQFDLIVD the figure was 0.563 ± 0.81; with VGSSVPGCRAGVFGLLDRCI, -0.489 ± 1.7.
With RRLLTCGGSPYRQLR the figure was -0.078 ± 0.98.
As to AQQLLIGDDDLDTAVEFDDM, the amyloid nucleation score was -0.509 ± 0.86.
Regarding WLMAKGRYLSAFTVSFIRSY, the amyloid nucleation score was -1.28 ± 1.8.
On to ESSNSLL, for which the amyloid nucleation score was -0.244 ± 0.4.
Consider YQVPKKVAATIGTAWARKRA, for which the amyloid nucleation score came to 0.279 ± 0.29.
Regarding SILISMYGGSSKKCQRFEEG, the amyloid nucleation score is 0.977 ± 0.47.
For the substance KCTCSVKCSCIFCFIICCVC, the amyloid nucleation score is -1.2 ± 1.7.
Consider STSILGANFALVWSEVVTVS, for which the amyloid nucleation score was -0.023 ± 0.66.
As for FRRHYNKMNFFVGFRERMCG, the amyloid nucleation score was -0.262 ± 0.49.
For the substance WCVYNFSCALISPY, the amyloid nucleation score amounted to 6.018 ± 0.054.
As for FIHSRE, the figure is 0.366 ± 0.31.
Regarding VNAIRSHAVWNGGQGPRFHS, the amyloid nucleation score is -0.098 ± 0.42.
Take MMSEYSYESFHMLII: the amyloid nucleation score was -2.05 ± 1.4.
YHCLWGFVGVLKSDSLRDRR displayed an amyloid nucleation score of 0.602 ± 0.38.
On to VCRTPSLRHHTFDVYFWSDV, for which the amyloid nucleation score is -0.105 ± 1.4.
As for FLNFPYMLRDCLMIRFIELE, the entry is “inactive”.
For AGVLAV, the amyloid nucleation score is -0.246 ± 0.46.
FQSSNSSYITIHYCLVGRFT gave an amyloid nucleation score of 6.013 ± 0.048.
For the substance SSGFVYIYSSKSLGANSKNL, the amyloid nucleation score is -0.176 ± 1.
RRLSMIMLFNPLSIWCFAQS: the amyloid nucleation score came out at 0.408 ± 0.5.

Source of the values: the supplement of paper PMC12042874.
